“And” between values parts separate entries of the source, which are not always exact repeats. Identical values can stand only once.
Experiments:
[1] = molecular target: recombinant His-tagged Can f1 (dog (Canis familiaris)) (UniProt O18873); test: serum ELISA, 1:64K, Alpaca 1 block
[2] = molecular target: T1, recombinant His-tagged Der p2 (dust mite, UniProt P49278 18-146); test: serum ELISA, 1:64K, Alpaca 1 block
T1 construct: also called Der p2-His; Der p2-HIS; not shown: His tag
T1 sequence (looked up): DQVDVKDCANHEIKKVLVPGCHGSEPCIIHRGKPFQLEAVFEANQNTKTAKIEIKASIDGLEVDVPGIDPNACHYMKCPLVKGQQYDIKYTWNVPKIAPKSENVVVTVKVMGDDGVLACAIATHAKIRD

[3] = molecular target: recombinant His-tagged Can f2 (dog (Canis familiaris)) (UniProt O18874); test: serum ELISA, 1:64K, Alpaca 1 block
Sequence of recombinant His-tagged Can f2 (dog (Canis familiaris)) (O18874 19-180 limits assumed): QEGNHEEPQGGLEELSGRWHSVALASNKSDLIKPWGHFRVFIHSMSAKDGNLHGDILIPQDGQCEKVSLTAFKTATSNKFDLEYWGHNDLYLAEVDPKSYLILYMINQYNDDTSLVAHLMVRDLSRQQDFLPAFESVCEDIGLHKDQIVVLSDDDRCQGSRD

[4] = molecular target: Can f2-sumo-His (dog (Canis familiaris)) (UniProt O18874); test: serum ELISA, 1:64K, Alpaca 1 block
Sequence of Can f2-sumo-His (dog (Canis familiaris)) (O18874 19-180): as the sequence (O18874 19-180 limits assumed) above

[5] = molecular target: recombinant His-tagged Can f1 (dog (Canis familiaris)) (UniProt O18873); test: serum ELISA, 1:64K, Alpaca 2 block
[6] = molecular target: T1, recombinant His-tagged Der p2; test: serum ELISA, 1:64K, Alpaca 2 block
[7] = molecular target: recombinant His-tagged Can f2 (dog (Canis familiaris)) (UniProt O18874); test: serum ELISA, 1:64K, Alpaca 2 block
[8] = molecular target: Can f2-sumo-His (dog (Canis familiaris)) (UniProt O18874); test: serum ELISA, 1:64K, Alpaca 2 block
[9] = molecular target: recombinant His-tagged Can f1 (dog (Canis familiaris)) (UniProt O18873); test: serum ELISA, 1:1K, Alpaca 1 block
[10] = molecular target: T1, recombinant His-tagged Der p2; test: serum ELISA, 1:1K, Alpaca 1 block
[11] = molecular target: recombinant His-tagged Can f2 (dog (Canis familiaris)) (UniProt O18874); test: serum ELISA, 1:1K, Alpaca 1 block
[12] = molecular target: Can f2-sumo-His (dog (Canis familiaris)) (UniProt O18874); test: serum ELISA, 1:1K, Alpaca 1 block
[13] = molecular target: recombinant His-tagged Can f1 (dog (Canis familiaris)) (UniProt O18873); test: serum ELISA, 1:4k, Alpaca 1 block
[14] = molecular target: T1, recombinant His-tagged Der p2; test: serum ELISA, 1:4k, Alpaca 1 block
[15] = molecular target: recombinant His-tagged Can f2 (dog (Canis familiaris)) (UniProt O18874); test: serum ELISA, 1:4k, Alpaca 1 block
[16] = molecular target: Can f2-sumo-His (dog (Canis familiaris)) (UniProt O18874); test: serum ELISA, 1:4k, Alpaca 1 block
[17] = molecular target: T1, recombinant His-tagged Der p2; test: serum ELISA, 1:8K, Alpaca 1 block
[18] = molecular target: recombinant His-tagged Can f2 (dog (Canis familiaris)) (UniProt O18874); test: serum ELISA, 1:8K, Alpaca 1 block
[19] = molecular target: Can f2-sumo-His (dog (Canis familiaris)) (UniProt O18874); test: serum ELISA, 1:8K, Alpaca 1 block
[20] = molecular target: recombinant His-tagged Can f1 (dog (Canis familiaris)) (UniProt O18873); test: serum ELISA, 1:4k, Alpaca 2 block
[21] = molecular target: T1, recombinant His-tagged Der p2; test: serum ELISA, 1:4k, Alpaca 2 block
[22] = molecular target: recombinant His-tagged Can f2 (dog (Canis familiaris)) (UniProt O18874); test: serum ELISA, 1:4k, Alpaca 2 block
[23] = molecular target: Can f2-sumo-His (dog (Canis familiaris)) (UniProt O18874); test: serum ELISA, 1:4k, Alpaca 2 block
[24] = molecular target: T1, recombinant His-tagged Der p2; test: serum ELISA, 1:2K, Alpaca 1 block
[25] = molecular target: recombinant His-tagged Can f2 (dog (Canis familiaris)) (UniProt O18874); test: serum ELISA, 1:2K, Alpaca 1 block
[26] = molecular target: Can f2-sumo-His (dog (Canis familiaris)) (UniProt O18874); test: serum ELISA, 1:2K, Alpaca 1 block
[27] = molecular target: recombinant His-tagged Can f1 (dog (Canis familiaris)) (UniProt O18873); test: serum ELISA, 1:1K, Alpaca 2 block
[28] = molecular target: T1, recombinant His-tagged Der p2; test: serum ELISA, 1:1K, Alpaca 2 block
[29] = molecular target: recombinant His-tagged Can f2 (dog (Canis familiaris)) (UniProt O18874); test: serum ELISA, 1:1K, Alpaca 2 block
[30] = molecular target: Can f2-sumo-His (dog (Canis familiaris)) (UniProt O18874); test: serum ELISA, 1:1K, Alpaca 2 block
[31] = molecular target: recombinant His-tagged Can f1 (dog (Canis familiaris)) (UniProt O18873); test: serum ELISA, 1:32k, Alpaca 1 block
[32] = molecular target: T1, recombinant His-tagged Der p2; test: serum ELISA, 1:32k, Alpaca 1 block
[33] = molecular target: recombinant His-tagged Can f2 (dog (Canis familiaris)) (UniProt O18874); test: serum ELISA, 1:32k, Alpaca 1 block
[34] = molecular target: Can f2-sumo-His (dog (Canis familiaris)) (UniProt O18874); test: serum ELISA, 1:32k, Alpaca 1 block
[35] = molecular target: recombinant His-tagged Can f1 (dog (Canis familiaris)) (UniProt O18873); test: serum ELISA, 1:8K, Alpaca 2 block
[36] = molecular target: T1, recombinant His-tagged Der p2; test: serum ELISA, 1:8K, Alpaca 2 block
[37] = molecular target: recombinant His-tagged Can f2 (dog (Canis familiaris)) (UniProt O18874); test: serum ELISA, 1:8K, Alpaca 2 block
[38] = molecular target: Can f2-sumo-His (dog (Canis familiaris)) (UniProt O18874); test: serum ELISA, 1:8K, Alpaca 2 block

Sequence of recombinant His-tagged Can f1 (dog (Canis familiaris)) (O18873 19-174 limits assumed): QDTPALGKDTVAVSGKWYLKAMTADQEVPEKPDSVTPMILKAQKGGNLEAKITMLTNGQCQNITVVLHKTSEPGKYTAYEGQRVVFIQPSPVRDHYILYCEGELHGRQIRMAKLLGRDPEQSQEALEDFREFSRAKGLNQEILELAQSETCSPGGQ

Negative serum taken from naïve alpacas
OD at 450 nm [1]: 0.103 OD | OD at 450 nm [2]: 0.085 OD and 0.081 OD | OD at 450 nm [3]: 0.064 OD and 0.069 OD | OD at 450 nm [4]: 0.057 OD and 0.058 OD | OD at 450 nm [5]: 0.088 OD and 0.087 OD | OD at 450 nm [6]: 0.071 OD and 0.079 OD | OD at 450 nm [7]: 0.07 OD and 0.062 OD | OD at 450 nm [8]: 0.07 OD and 0.057 OD | OD at 450 nm [9]: 0.294 OD and 0.342 OD | OD at 450 nm [10]: 0.246 OD and 0.255 OD | OD at 450 nm [11]: 0.128 OD and 0.133 OD | OD at 450 nm [12]: 0.119 OD and 0.111 OD | OD at 450 nm [13]: 0.137 OD and 0.147 OD | OD at 450 nm [14]: 0.119 OD and 0.116 OD | OD at 450 nm [15]: 0.077 OD and 0.075 OD | OD at 450 nm [16]: 0.071 OD and 0.072 OD | OD at 450 nm [17]: 0.104 OD and 0.099 OD | OD at 450 nm [18]: 0.076 OD | OD at 450 nm [19]: 0.072 OD | OD at 450 nm [20]: 0.122 OD | OD at 450 nm [21]: 0.113 OD | OD at 450 nm [22]: 0.108 OD and 0.101 OD | OD at 450 nm [23]: 0.09 OD and 0.081 OD | OD at 450 nm [24]: 0.149 OD and 0.154 OD | OD at 450 nm [25]: 0.093 OD and 0.099 OD | OD at 450 nm [26]: 0.088 OD and 0.085 OD | OD at 450 nm [27]: 0.228 OD and 0.218 OD | OD at 450 nm [28]: 0.201 OD and 0.19 OD | OD at 450 nm [29]: 0.227 OD and 0.241 OD | OD at 450 nm [30]: 0.186 OD and 0.181 OD | OD at 450 nm [31]: 0.102 OD and 0.107 OD | OD at 450 nm [32]: 0.099 OD and 0.081 OD | OD at 450 nm [33]: 0.069 OD and 0.062 OD | OD at 450 nm [34]: 0.056 OD and 0.057 OD | OD at 450 nm [35]: 0.108 OD and 0.111 OD | OD at 450 nm [36]: 0.101 OD and 0.103 OD | OD at 450 nm [37]: 0.099 OD and 0.084 OD | OD at 450 nm [38]: 0.083 OD and 0.079 OD

— patent US20240352105A1, “COMPOSITIONS AND METHODS FOR NEUTRALIZING ANTIGENS” (PACAGEN, INC, priority 2023, published 2024)
